Consider 4 molecules from patent US20250161474A1 (SICHUAN KELUN BIOTECH BIOPHARMACEUTICAL, published 2025).

In assay [1] the target is T1, human c-MET (human, UniProt P08581 25-1390).
T1 construct: whole, on cells; also called tyrosine protein kinase Met; hepatocyte growth factor receptor
Put plainly: flow cytometry on EBC-1 cells (highly express c-MET). The text has this: (§1) A flow cytometer (Beckman, model Cytoflex) was used to detect the interaction between anti-human EGFR/c-MET bispecific antibodies and their conjugates and human gastric cancer cells MKN45 (Nanjing Cobioer Biosciences) and human gastric cancer cells overexpressing human EGFR MKN45-EGFR (Kelun-Biotech), human lung squamous cell carcinoma EBC-1 (Nanjing Cobioer Biosciences), human lung squamous cell carcinoma EBC-1-EGFR overexpressing human EGFR (Kelun-Biotech), human non-small cell lung cancer cell HCC827 (ATCC™), and human epidermal squamous cell carcinoma cell A431 (Nanjing Cobioer Biosciences). The protocol was as follows.
(§2) The adherent cells were digested with Trypsin-EDTA solution (0.25%) (Shanghai BasalMedia) and the cell density adjusted to 4.0×10⁶ per mL. The cells were washed twice with 1% BSA and resuspended in 1% BSA solution. Then 50 μL cell suspension was added to each well of a 96-well plate (the number of cells was 2×10⁵ per well). The antibody and its conjugate were diluted with 1% BSA (final concentration 10 µg/mL, 3-fold gradient dilution, a total of 11 concentration points). Then 50 μL of the diluted antibody and ADC were added to the wells of the 96-well plate and the plate was incubated at 4° C. for 60 minutes. The wells of the 96-well plate were then washed twice with 1% BSA, 50 μL of diluted secondary antibody was added to each well, and the 96-well plate was incubated at 4° C. for 30 minutes. Then the cells were washed twice with 1% BSA, and the cells were resuspended in 200 μL of 1% BSA and subjected to flow cytometry detection.
Background: A flow cytometer gives signals particle by particle.

The target of assay [2] is T1, human c-MET. Put plainly: cell-based or functional assay.
For assay [3], the target named is T1, human c-MET. Description: flow cytometry on MKN45 cells (highly express c-MET).
Excerpt: as §1, §2

The next assay addresses T2, human EGFR (human, UniProt P00533 25-1210).
T2 construct: whole, on cells; also called epidermal growth factor receptor; ErbB-1
Put plainly: flow cytometry on A431 cells (highly express EGFR).
Excerpt: as §1
as §2, with “The wells of the 96-well plate were then washed twice with 1% BSA, 50 μL of diluted secondary antibody was added to each well, and the 96-well plate was incubated at 4° C. for 30 minutes. Then the cells were washed twice with 1% BSA, and the cells were resuspended in 200 μL of 1% BSA and subjected to flow cytometry detection.” left out

T1 sequence (P08581 25-1390): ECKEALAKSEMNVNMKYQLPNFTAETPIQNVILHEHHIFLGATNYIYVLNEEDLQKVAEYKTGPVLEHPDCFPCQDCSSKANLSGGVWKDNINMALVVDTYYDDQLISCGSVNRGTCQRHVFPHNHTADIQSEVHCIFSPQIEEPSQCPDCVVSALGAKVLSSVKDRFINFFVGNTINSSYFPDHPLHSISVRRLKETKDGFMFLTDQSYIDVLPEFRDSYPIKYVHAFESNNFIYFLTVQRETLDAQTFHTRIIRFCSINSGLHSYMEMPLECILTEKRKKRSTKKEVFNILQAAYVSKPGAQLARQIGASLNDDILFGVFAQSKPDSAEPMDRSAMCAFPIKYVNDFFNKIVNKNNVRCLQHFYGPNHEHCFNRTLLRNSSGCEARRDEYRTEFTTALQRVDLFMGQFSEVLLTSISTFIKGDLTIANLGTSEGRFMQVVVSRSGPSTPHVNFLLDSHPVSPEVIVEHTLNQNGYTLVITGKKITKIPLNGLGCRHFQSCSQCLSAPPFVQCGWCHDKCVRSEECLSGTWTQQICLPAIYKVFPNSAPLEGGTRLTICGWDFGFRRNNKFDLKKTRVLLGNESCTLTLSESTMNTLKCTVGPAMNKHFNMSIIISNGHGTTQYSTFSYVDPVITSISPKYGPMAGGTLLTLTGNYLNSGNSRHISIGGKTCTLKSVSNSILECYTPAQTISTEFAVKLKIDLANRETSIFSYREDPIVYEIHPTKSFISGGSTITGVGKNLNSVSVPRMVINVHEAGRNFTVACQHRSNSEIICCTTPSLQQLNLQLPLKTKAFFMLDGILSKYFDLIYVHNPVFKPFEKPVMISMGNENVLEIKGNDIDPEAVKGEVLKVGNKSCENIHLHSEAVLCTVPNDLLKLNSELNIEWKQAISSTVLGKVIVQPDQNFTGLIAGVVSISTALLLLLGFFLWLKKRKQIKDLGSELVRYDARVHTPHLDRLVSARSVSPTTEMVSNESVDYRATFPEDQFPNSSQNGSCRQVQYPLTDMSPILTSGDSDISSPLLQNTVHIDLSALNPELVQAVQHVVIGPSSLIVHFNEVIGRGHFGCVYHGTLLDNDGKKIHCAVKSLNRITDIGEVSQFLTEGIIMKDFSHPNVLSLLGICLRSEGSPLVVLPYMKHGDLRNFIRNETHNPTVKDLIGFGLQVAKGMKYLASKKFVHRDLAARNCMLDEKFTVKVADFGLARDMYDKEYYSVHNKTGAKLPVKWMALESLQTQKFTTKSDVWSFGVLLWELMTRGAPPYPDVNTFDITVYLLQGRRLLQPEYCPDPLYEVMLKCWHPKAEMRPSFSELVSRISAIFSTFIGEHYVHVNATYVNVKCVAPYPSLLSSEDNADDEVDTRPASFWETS

B1: ADC 49B-B-01 (bispecific antibody, human IgG1, kappa, L234A L235A)
light: DIQMTQSPSSLSASVGDRVTITCKSSQSLLYTSSQKNYLAWYQQKPGKAPKLLIYWASTRESGVPSRFSGSGSGTDFTLTISSLQPEDFATYYCQQYYAYPWTFGQGTKVEIKRTVAAPSVFIFPPSDEQLKSGTASVVCLLNNFYPREAKVQWKVDNALQSGNSQESVTEQDSKDSTYSLSSTLTLSKADYEKHKVYACEVTHQGLSSPVTKSFNRGEC
heavy: not shown
chain: AIQLTQSPSSLSASVGDRVTITCRASQDISSALVWYQQKPGKAPKLLIYDASSLESGVPSRFSGSESGTDFTLTISSLQPEDFATYYCQQFNSYPLTFGGGTKVEIKGGGGSGGGGSGGGGSQVQLVESGGGVVQPGRSLRLSCAASGFTFSTYGMHWVRQAPGKGLEWVAVIWDDGSYKYYGDSVKGRFTISRDNSKNTLYLQMNSLRAEDTAVYYCARDGITMVRGVMKDYFDYWGQGTLVTVSSGGGGDKTHTCPPCPAPEAAGGPSVFLFPPKPKDTLMISRTPEVTCVVVDVSHEDPEVKFNWYVDGVEVHNAKTKPREEQYNSTYRVVSVLTVLHQDWLNGKEYKCKVSNKALAAPIEKTISKAKGQPREPQVCTLPPSRDELTKNQVSLSCAVKGFYPSDIAVEWESNGQPENNYKTTPPVLDSDGSFFLVSKLTVDKSRWQQGNVFSCSVMHEALHNHYTQKSLSLSPGK
modifications: linker-payload B-01 on reduced Cys sulfhydryls (sites not given); DAR of the whole ADC approximately 6
Consider B1, for which, in the assay with human c-MET [1], the EC50 came to 1.13 nM. For the same molecule, in the assay with human c-MET [2], the “IC50, in vitro cell killing (CCK8) on EBC-1 cells” value (“IC50 … on EBC-1 cells” for short) stood at 0.66 nM and the “IC50, in vitro cell killing (CCK8) on MKN45 cells” value (from here on “IC50 … on MKN45 cells”) stood at 0.78 nM. This molecule gave an EC50 with human c-MET [3] of 1.36 nM.

B2: ADC 41B-A-05 (bispecific antibody, human IgG1, kappa, L234A L235A)
light: not shown
heavy: not shown
chain: DIQMTQSPSSLSASVGDRVTITCKSSQSLLYTSSQKNYLAWYQQKPGKAPKLLIYWASTRESGVPSRFSGSGSGTDFTLTISSLQPEDFATYYCQQYYAYPWTFGCGTKVEIKRTVAAPSVFIFPPSDEQLKSGTASVVCLLNNFYPREAKVQWKVDNALQSGNSQESVTEQDSKDSTYSLSSTLTLSKADYEKHKVYACEVTHQGLSSPVTKSFNRGECGGGGSGGGGSGGGGSGGGGSGGGGSGGGGSGGGGSGGGGSEVQLVESGGGLVQPGGSLRLSCAASGYTFTSYWLHWVRQAPGKCLEWVGMIDPSNSDTRFNPNFKDRFTISADTSKNTAYLQMNSLRAEDTAVYYCATYRSYVTPLDYWGQGTLVTVSSASTKGPSVFPLAPSSKSTSGGTAALGCLVKDYFPEPVTVSWNSGALTSGVHTFPAVLQSSGLYSLSSVVTVPSSSLGTQTYICNVNHKPSNTKVDKKVEPKSCDKTHTCPPCPAPEAAGGPSVFLFPPKPKDTLMISRTPEVTCVVVDVSHEDPEVKFNWYVDGVEVHNAKTKPREEQYNSTYRVVSVLTVLHQDWLNGKEYKCKVSNKALAAPIEKTISKAKGQPREPQVCTLPPSRDELTKNQVSLSCAVKGFYPSDIAVEWESNGQPENNYKTTPPVLDSDGSFFLVSKLTVDKSRWQQGNVFSCSVMHEALHNHYTQKSLSLSPGK
modifications: linker-payload A-05 on reduced Cys sulfhydryls (sites not given); DAR of the whole ADC approximately 8
On to B2, for which the “IC50 … on EBC-1 cells” value with human c-MET [2] stood at 0.44 nM. The “IC50 … on MKN45 cells” value in the assay with human c-MET [2] turned out to be 0.42 nM. Besides, the EC50 with human c-MET [3] turned out to be 0.69 nM; with human EGFR, 0.48 nM.

B3: BsAb 41B (bispecific antibody, human IgG1, kappa, L234A L235A)
light: not shown
heavy: not shown
chain: B2 chain
notes: Fab-scFab-Fc (KIH) format; anti-EGFR Fab, anti-c-MET scFab; also called bispecific antibody 41B
Consider B3, for which the EC50 amounted to 1.77 nM in the assay with human c-MET [3] and 1.34 nM with human EGFR.

B4: ADC 10B-A-05 (bispecific antibody, human IgG1, kappa)
light: not shown
heavy: not shown
chain: DIQMTQSPSSLSASVGDRVTITCKSSQSLLYTSSQKNYLAWYQQKPGKAPKLLIYWASTRESGVPSRFSGSGSGTDFTLTISSLQPEDFATYYCQQYYAYPWTFGQGTKVEIKGGGGSGGGGSGGGGSEVQLVESGGGLVQPGGSLRLSCAASGYTFTSYWLHWVRQAPGKGLEWVGMIDPSNSDTRFNPNFKDRFTISADTSKNTAYLQMNSLRAEDTAVYYCATYRSYVTPLDYWGQGTLVTVSSGGGGDKTHTCPPCPAPELLGGPSVFLFPPKPKDTLMISRTPEVTCVVVDVSHEDPEVKFNWYVDGVEVHNAKTKPREEQYNSTYRVVSVLTVLHQDWLNGKEYKCKVSNKALPAPIEKTISKAKGQPREPQVCTLPPSREEMTKNQVSLSCAVKGFYPSDIAVEWESNGQPENNYKTTPPVLDSDGSFFLVSKLTVDKSRWQQGNVFSCSVMHEALHNHYTQKSLSLSPGK
modifications: linker-payload A-05 on reduced Cys sulfhydryls (sites not given); DAR of the whole ADC approximately 6
On to B4, for which, in the assay with human c-MET [1], the EC50 was found to be 1.91 nM. In the assay with human c-MET [2], the “IC50 … on EBC-1 cells” value turned out to be 0.59 nM and the “IC50 … on MKN45 cells” value stood at 0.33 nM. The EC50 with human c-MET [3] was 2.14 nM.

What is called EC50 is the concentration at which the effect is half-maximal. A low value points to higher potency in that assay.
